Experimental data reported in the supplement of paper PMC10065799, “High-throughput profiling of sequence recognition by tyrosine kinases and SH2 domains using bacterial peptide display” (eLife, 2023).

Target: Hck (UniProt P08631)
Assay: phosphorylation enrichment, bacterial display (enrichment ratio); higher = better substrate or ligand; peptides without Tyr show the background
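Further: 11-residue human phosphosite peptides and single-mutation variants displayed on the E. coli surface, counted by deep sequencing, each peptide's frequency after selection divided by its frequency in the unselected input library; frequency after pTyr selection over input frequency; kinase dosed for 20-30% of maximal phosphorylation in three min.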

Chain of Hck (P08631 whole entry, looked up): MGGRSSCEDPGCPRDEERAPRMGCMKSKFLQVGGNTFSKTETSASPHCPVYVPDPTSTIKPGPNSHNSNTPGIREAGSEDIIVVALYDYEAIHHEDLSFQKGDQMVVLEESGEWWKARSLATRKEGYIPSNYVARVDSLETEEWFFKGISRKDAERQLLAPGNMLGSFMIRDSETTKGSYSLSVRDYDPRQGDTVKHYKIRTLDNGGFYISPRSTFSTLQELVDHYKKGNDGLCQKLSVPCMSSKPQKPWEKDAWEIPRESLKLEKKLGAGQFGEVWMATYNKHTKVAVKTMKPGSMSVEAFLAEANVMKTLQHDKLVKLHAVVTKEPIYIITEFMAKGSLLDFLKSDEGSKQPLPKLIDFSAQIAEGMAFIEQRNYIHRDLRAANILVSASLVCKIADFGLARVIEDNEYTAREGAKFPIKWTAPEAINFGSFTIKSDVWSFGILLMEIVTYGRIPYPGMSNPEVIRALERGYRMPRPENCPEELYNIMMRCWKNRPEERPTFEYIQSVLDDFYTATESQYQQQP

| Sequence | phosphorylation enrichment |
| --- | --- |
| RSDSTYRMSAT [NHS_Y1532_S1531T] | 0.436 |
| SQQTYYPVSNM [ABCD1_Y181_R182P] | 6.81 |
| IRDENYGEGSS [ACO2_Y665_G661R] | 0.925 |
| HNLFSYPTKFE [MYO3A_Y1396_H1400Y_YF] | 0.684 |
| KLSFSYGRALQ [ALDOB_Y302] | 0.46 |
| ALAQKYHGGGG [HBB_Y146_H144Q] | 0.368 |
| QKTGDYFDLFG [PTPN11_Y62_N58K_YF] | 0.442 |
| AKKMKYFEGVS [PRKDC_Y682_I680M] | 0.351 |
| RNIQQYNSFVS [PRKAR1A_Y373] | 0.64 |
| RRGMPYGGLGD [TGM1_Y312_R315L] | 0.391 |
| FIRKDYEACKA [BBS4_Y48_YF] | 0.396 |
| TESNNYIYTTL [FAM83B_Y637_K640T] | 7.3 |
| WQQQSYLGSGI [CTNNB1_Y30_D32G] | 0.471 |
| LQLLGYRPVFS [CHST6_Y358_YF] | 0.697 |
| YISLIYTNYEA [GSTP1_Y109] | 2.83 |
| DRLASYLDKMR [KRT17_Y98_V102M] | 0.473 |
| NSVLVYRNGDP [DCDC2_Y22_K17N] | 0.492 |

| Sequence | phosphorylation enrichment |
| --- | --- |
| WAFNLYDINKY [KCNIP3_Y174_D179Y] | 3.09 |
| GPGLVYGVANK [FLNB_Y1833] | 3.44 |
| KNNDGYTDYAE [MCFD2_Y135_I136T] | 0.461 |
| GTGTAYLCGVK [ALPL_Y117_A114G] | 0.395 |
| LEDPMYDIIRD [RP9_Y142_H137L] | 7.93 |
| PFAEPYADFGG [APBA1_Y187_S184A_YF] | 0.673 |
| VRFMEYETQVK [TARDBP_Y155_T153M] | 0.459 |
| DDHFTYSRFPW [LY75_Y888_YF] | 6.66 |
| MRALIYNSSTV [PLEKHA7_Y243_A248V] | 0.754 |
| ILNANCMAKRL [GLDC_Y839_Y839C] | 0.391 |
| QDRTFYESVRT [SPEN_Y633_YF] | 2.43 |
| MACDRYVAICS [OR8D4_Y123] | 0.45 |
| LFCLHYFHRTF [SRD5A2_Y91_V89L] | 0.494 |
| RGNKEYKEEKR [LENG1_Y96_E97K] | 0.425 |
| ASKEPYFVRCI [MYO1D_Y585_YF] | 0.659 |
| SFTDPYAQPSL [KMT2D_Y2378_P2382S_YF] | 0.581 |

Target: Jak2 (UniProt O60674)
Sequence (O60674 whole entry, looked up): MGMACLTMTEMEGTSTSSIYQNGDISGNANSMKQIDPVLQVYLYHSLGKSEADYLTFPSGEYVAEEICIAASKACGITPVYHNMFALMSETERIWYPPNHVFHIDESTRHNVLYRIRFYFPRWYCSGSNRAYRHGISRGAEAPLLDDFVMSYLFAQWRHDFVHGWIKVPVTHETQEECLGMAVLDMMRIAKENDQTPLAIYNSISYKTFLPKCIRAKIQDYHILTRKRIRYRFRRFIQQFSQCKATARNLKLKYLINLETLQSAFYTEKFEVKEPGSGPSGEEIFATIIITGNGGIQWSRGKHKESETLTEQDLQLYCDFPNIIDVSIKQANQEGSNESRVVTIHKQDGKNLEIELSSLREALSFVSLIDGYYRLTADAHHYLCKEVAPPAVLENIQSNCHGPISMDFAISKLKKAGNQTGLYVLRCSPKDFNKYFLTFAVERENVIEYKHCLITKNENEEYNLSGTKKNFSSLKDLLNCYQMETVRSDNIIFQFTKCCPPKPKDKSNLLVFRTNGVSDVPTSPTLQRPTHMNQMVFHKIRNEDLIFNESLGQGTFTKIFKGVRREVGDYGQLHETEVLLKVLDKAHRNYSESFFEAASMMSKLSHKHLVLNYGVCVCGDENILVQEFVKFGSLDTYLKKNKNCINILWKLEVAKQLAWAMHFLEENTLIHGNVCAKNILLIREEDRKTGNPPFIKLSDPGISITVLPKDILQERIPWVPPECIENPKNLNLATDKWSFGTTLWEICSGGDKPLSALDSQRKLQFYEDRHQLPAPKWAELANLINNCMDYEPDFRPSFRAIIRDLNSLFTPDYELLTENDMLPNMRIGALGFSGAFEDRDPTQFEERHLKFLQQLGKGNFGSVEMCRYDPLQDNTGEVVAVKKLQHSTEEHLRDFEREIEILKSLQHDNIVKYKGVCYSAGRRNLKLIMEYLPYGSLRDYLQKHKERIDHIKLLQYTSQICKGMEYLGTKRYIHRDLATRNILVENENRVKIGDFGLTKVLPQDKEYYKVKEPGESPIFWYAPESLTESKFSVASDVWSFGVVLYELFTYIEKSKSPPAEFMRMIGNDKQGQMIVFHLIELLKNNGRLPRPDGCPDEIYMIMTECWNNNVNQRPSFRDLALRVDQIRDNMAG
Assay: as above

| Sequence | phosphorylation enrichment |
| --- | --- |
| RSDSTYRMSAT [NHS_Y1532_S1531T] | 0.709 |
| SQQTYYPVSNM [ABCD1_Y181_R182P] | 9.57 |
| IRDENYGEGSS [ACO2_Y665_G661R] | 0.733 |
| HNLFSYPTKFE [MYO3A_Y1396_H1400Y_YF] | 1.44 |
| KLSFSYGRALQ [ALDOB_Y302] | 0.847 |
| ALAQKYHGGGG [HBB_Y146_H144Q] | 0.462 |
| QKTGDYFDLFG [PTPN11_Y62_N58K_YF] | 7.57 |
| AKKMKYFEGVS [PRKDC_Y682_I680M] | 0.499 |
| RNIQQYNSFVS [PRKAR1A_Y373] | 0.667 |
| RRGMPYGGLGD [TGM1_Y312_R315L] | 0.352 |
| FIRKDYEACKA [BBS4_Y48_YF] | 0.741 |
| TESNNYIYTTL [FAM83B_Y637_K640T] | 0.774 |
| WQQQSYLGSGI [CTNNB1_Y30_D32G] | 0.544 |
| LQLLGYRPVFS [CHST6_Y358_YF] | 1.15 |
| YISLIYTNYEA [GSTP1_Y109] | 1.23 |
| DRLASYLDKMR [KRT17_Y98_V102M] | 0.667 |
| NSVLVYRNGDP [DCDC2_Y22_K17N] | 0.627 |

| Sequence | phosphorylation enrichment |
| --- | --- |
| WAFNLYDINKY [KCNIP3_Y174_D179Y] | 0.953 |
| GPGLVYGVANK [FLNB_Y1833] | 0.718 |
| KNNDGYTDYAE [MCFD2_Y135_I136T] | 0.831 |
| GTGTAYLCGVK [ALPL_Y117_A114G] | 0.675 |
| LEDPMYDIIRD [RP9_Y142_H137L] | 2.7 |
| PFAEPYADFGG [APBA1_Y187_S184A_YF] | 0.993 |
| VRFMEYETQVK [TARDBP_Y155_T153M] | 0.979 |
| DDHFTYSRFPW [LY75_Y888_YF] | 1.28 |
| MRALIYNSSTV [PLEKHA7_Y243_A248V] | 0.726 |
| ILNANCMAKRL [GLDC_Y839_Y839C] | 0.611 |
| QDRTFYESVRT [SPEN_Y633_YF] | 0.564 |
| MACDRYVAICS [OR8D4_Y123] | 0.755 |
| LFCLHYFHRTF [SRD5A2_Y91_V89L] | 1.78 |
| RGNKEYKEEKR [LENG1_Y96_E97K] | 0.511 |
| ASKEPYFVRCI [MYO1D_Y585_YF] | 1.22 |
| SFTDPYAQPSL [KMT2D_Y2378_P2382S_YF] | 0.689 |

Target: MERTK (UniProt Q12866)
Sequence (Q12866 whole entry, looked up): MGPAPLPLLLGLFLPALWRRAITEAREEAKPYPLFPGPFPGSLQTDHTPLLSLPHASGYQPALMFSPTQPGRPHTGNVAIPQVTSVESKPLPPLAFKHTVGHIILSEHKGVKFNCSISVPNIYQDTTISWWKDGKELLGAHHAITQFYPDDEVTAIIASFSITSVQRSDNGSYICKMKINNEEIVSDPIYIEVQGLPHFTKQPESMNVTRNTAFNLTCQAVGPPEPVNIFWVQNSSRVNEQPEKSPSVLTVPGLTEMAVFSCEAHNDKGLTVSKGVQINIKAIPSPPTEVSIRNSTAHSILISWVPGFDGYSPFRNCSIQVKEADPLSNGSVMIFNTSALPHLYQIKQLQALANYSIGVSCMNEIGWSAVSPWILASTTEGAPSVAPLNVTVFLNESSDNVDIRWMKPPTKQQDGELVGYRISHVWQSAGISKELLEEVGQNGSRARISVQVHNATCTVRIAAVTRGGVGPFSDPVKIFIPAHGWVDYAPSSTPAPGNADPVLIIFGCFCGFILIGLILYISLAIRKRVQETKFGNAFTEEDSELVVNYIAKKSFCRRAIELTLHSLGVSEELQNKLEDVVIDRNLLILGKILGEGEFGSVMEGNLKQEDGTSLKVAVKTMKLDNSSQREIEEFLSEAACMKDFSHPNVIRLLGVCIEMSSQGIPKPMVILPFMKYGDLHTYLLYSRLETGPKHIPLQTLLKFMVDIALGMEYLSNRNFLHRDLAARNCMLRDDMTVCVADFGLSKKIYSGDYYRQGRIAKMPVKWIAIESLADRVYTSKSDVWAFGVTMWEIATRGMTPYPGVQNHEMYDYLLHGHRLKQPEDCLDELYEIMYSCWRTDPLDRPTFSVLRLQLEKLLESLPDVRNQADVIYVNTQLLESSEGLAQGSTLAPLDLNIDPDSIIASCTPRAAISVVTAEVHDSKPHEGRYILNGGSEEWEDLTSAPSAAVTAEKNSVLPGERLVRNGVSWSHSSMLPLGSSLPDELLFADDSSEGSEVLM
Assay: as above

| Sequence | phosphorylation enrichment |
| --- | --- |
| RSDSTYRMSAT [NHS_Y1532_S1531T] | 0.335 |
| SQQTYYPVSNM [ABCD1_Y181_R182P] | 10.5 |
| IRDENYGEGSS [ACO2_Y665_G661R] | 0.46 |
| HNLFSYPTKFE [MYO3A_Y1396_H1400Y_YF] | 0.569 |
| KLSFSYGRALQ [ALDOB_Y302] | 0.407 |
| ALAQKYHGGGG [HBB_Y146_H144Q] | 0.363 |
| QKTGDYFDLFG [PTPN11_Y62_N58K_YF] | 1.04 |
| AKKMKYFEGVS [PRKDC_Y682_I680M] | 0.318 |
| RNIQQYNSFVS [PRKAR1A_Y373] | 0.457 |
| RRGMPYGGLGD [TGM1_Y312_R315L] | 1.02 |
| FIRKDYEACKA [BBS4_Y48_YF] | 0.334 |
| TESNNYIYTTL [FAM83B_Y637_K640T] | 5.09 |
| WQQQSYLGSGI [CTNNB1_Y30_D32G] | 0.357 |
| LQLLGYRPVFS [CHST6_Y358_YF] | 0.502 |
| YISLIYTNYEA [GSTP1_Y109] | 3.44 |
| DRLASYLDKMR [KRT17_Y98_V102M] | 0.45 |
| NSVLVYRNGDP [DCDC2_Y22_K17N] | 0.454 |

| Sequence | phosphorylation enrichment |
| --- | --- |
| WAFNLYDINKY [KCNIP3_Y174_D179Y] | 2.65 |
| GPGLVYGVANK [FLNB_Y1833] | 0.422 |
| KNNDGYTDYAE [MCFD2_Y135_I136T] | 0.458 |
| GTGTAYLCGVK [ALPL_Y117_A114G] | 0.379 |
| LEDPMYDIIRD [RP9_Y142_H137L] | 7.83 |
| PFAEPYADFGG [APBA1_Y187_S184A_YF] | 0.571 |
| VRFMEYETQVK [TARDBP_Y155_T153M] | 0.373 |
| DDHFTYSRFPW [LY75_Y888_YF] | 3.18 |
| MRALIYNSSTV [PLEKHA7_Y243_A248V] | 0.405 |
| ILNANCMAKRL [GLDC_Y839_Y839C] | 0.42 |
| QDRTFYESVRT [SPEN_Y633_YF] | 1.04 |
| MACDRYVAICS [OR8D4_Y123] | 0.576 |
| LFCLHYFHRTF [SRD5A2_Y91_V89L] | 0.66 |
| RGNKEYKEEKR [LENG1_Y96_E97K] | 0.392 |
| ASKEPYFVRCI [MYO1D_Y585_YF] | 0.574 |
| SFTDPYAQPSL [KMT2D_Y2378_P2382S_YF] | 0.429 |

Tested on: c-Abl (mouse)
Assay: as above

| Sequence | phosphorylation enrichment |
| --- | --- |
| RSDSTYRMSAT [NHS_Y1532_S1531T] | 0.697 |
| SQQTYYPVSNM [ABCD1_Y181_R182P] | 2.44 |
| IRDENYGEGSS [ACO2_Y665_G661R] | 0.639 |
| HNLFSYPTKFE [MYO3A_Y1396_H1400Y_YF] | 0.881 |
| KLSFSYGRALQ [ALDOB_Y302] | 0.694 |
| ALAQKYHGGGG [HBB_Y146_H144Q] | 0.592 |
| QKTGDYFDLFG [PTPN11_Y62_N58K_YF] | 0.815 |
| AKKMKYFEGVS [PRKDC_Y682_I680M] | 0.404 |
| RNIQQYNSFVS [PRKAR1A_Y373] | 0.986 |
| RRGMPYGGLGD [TGM1_Y312_R315L] | 0.66 |
| FIRKDYEACKA [BBS4_Y48_YF] | 0.726 |
| TESNNYIYTTL [FAM83B_Y637_K640T] | 0.692 |
| WQQQSYLGSGI [CTNNB1_Y30_D32G] | 0.521 |
| LQLLGYRPVFS [CHST6_Y358_YF] | 0.865 |
| YISLIYTNYEA [GSTP1_Y109] | 1.31 |
| DRLASYLDKMR [KRT17_Y98_V102M] | 0.606 |
| NSVLVYRNGDP [DCDC2_Y22_K17N] | 0.534 |

| Sequence | phosphorylation enrichment |
| --- | --- |
| WAFNLYDINKY [KCNIP3_Y174_D179Y] | 0.709 |
| GPGLVYGVANK [FLNB_Y1833] | 0.545 |
| KNNDGYTDYAE [MCFD2_Y135_I136T] | 0.85 |
| GTGTAYLCGVK [ALPL_Y117_A114G] | 0.685 |
| LEDPMYDIIRD [RP9_Y142_H137L] | 4.38 |
| PFAEPYADFGG [APBA1_Y187_S184A_YF] | 0.638 |
| VRFMEYETQVK [TARDBP_Y155_T153M] | 0.73 |
| DDHFTYSRFPW [LY75_Y888_YF] | 1.66 |
| MRALIYNSSTV [PLEKHA7_Y243_A248V] | 0.872 |
| ILNANCMAKRL [GLDC_Y839_Y839C] | 0.498 |
| QDRTFYESVRT [SPEN_Y633_YF] | 0.717 |
| MACDRYVAICS [OR8D4_Y123] | 0.55 |
| LFCLHYFHRTF [SRD5A2_Y91_V89L] | 1.21 |
| RGNKEYKEEKR [LENG1_Y96_E97K] | 0.688 |
| ASKEPYFVRCI [MYO1D_Y585_YF] | 0.938 |
| SFTDPYAQPSL [KMT2D_Y2378_P2382S_YF] | 0.747 |
